# Results taken from the nanobody polyreactivity screen of Harvey et al. (2022).
# Experiment: yeast display, Sf9 membrane polyspecificity reagent, FACS + sequencing; frameworks hold sequencing errors
# How it was run: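 Galactose-induced (36–48 hours) yeast carrying a synthetic nanobody display library were exposed to 10% biotinylated, detergent-solubilized Sf9 membrane reagent at 4 °C for 1 hour. FACS followed streptavidin microbead enrichment, using low and high (top ~1%) gates for expression (anti-HA) and reagent binding (streptavidin). Colony PCR, MiSeq 2 × 250 sequencing and CDR-length filtering followed. Labels for polyreactivity reflect the gate of origin.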
row,Sequence,polyreactivity (PSR sort gate)
1,QVQLVESGGGLVQAGGSLRLSCAASVFIFPHYTMGWYRQAPGKERELVAAISSSGGSTYYADSVKGRFTISRYNAKNTVYLQMNSLKPEDSADYYCPGPLPYYGQYDYWGQGTQVTVSS,low polyreactivity
2,QVQLVESGGGLVQAGGSLRLSCAASVFTFAPNAMGWYRQAPGKERELVAVIDSGGSTNYADSVKGRFTISRDNAKNTVYLQMNSLKPEDTAVYYCATDVPLDYYWLWDDYWGQGTQVTVSS,low polyreactivity
3,QVQLVESGGGLVQAGGSLRLSCAASVFTFNDYAMGWYRQAPGKERELVAAIDWSGGRTYYADSVKGRFTISRDNAKNTVYLQMNSLKPEDTAVYYCAAVLYSRLYWYRLDYWGQGTQVTVSS,low polyreactivity
4,QVQLVESGGGLVQAGGSLRLSCAASVFTFTKYAMGWYRQAPGKERELVAAITRRGGRTYYADSVKGRFTISRDNAKNTVYLQMNSLKPEDTAVYYFNADIIWGSVSNGSEYDYWGQGTQVTVSS,high polyreactivity
5,QVQLVESGGGLVQAGGSLRLSCAASVFTSLIYAMGWYRPAPGKERELVATLTWGGGSTYADSVKGRLTISRDNAQNTVYLQMNSLKPVDTAVYDCKADIYDSWVYATVYSDRYDYWGQGTQVTVSS,low polyreactivity
6,QVQLVESGGGLVQAGGSLRLSCAASVFYPYAMGWYRQAPGKERELVAAISWSGGRTYYADSVKGRFTISRDNAKNTVYLQMNSLKPEDTAVYYCNKVYSSYRVYDFNYWGQGTQVTVSS,high polyreactivity
7,QVQLVESGGGLVQAGGSLRLSCAASVIICPDNAMGWDRPAPGKERELVAAITQSRGSTFYADSVKGRFTISRDNAKNTVYLQMKSLKPEDTAVYYCNAYRKFRYWGQGTQVTVSS,high polyreactivity
8,QVQLVESGGGLVQAGGSLRLSCAASVISFARNVMGWYRQATGKERELVAGISRRGGSTYYADSVKGRFTISRDNAKNTVYLQMNSLKPEDTAVYYCAAEYIRNGDYGLDYWGQGTQVTVSS,high polyreactivity
9,QVQLVESGGGLVQAGGSLRLSCAASVITFVFYAMGWYRQAPGKEREFVAGITWRGGRTYYADSVKGRFTISRDNAKNTVYLQMNSLKPEDTAVYYCNARSVVLTGGDYWGQGTQVTVSS,high polyreactivity
10,QVQLVESGGGLVQAGGSLRLSCAASVITVRSYAMGWYRQAPGKERELVARISTDADTYYADSVKGRFTISRDNAKITVYLHMNSLKPEDTAVYYCAAEDYWDFDYWGQGTQVTVSS,low polyreactivity
11,QVQLVESGGGLVQAGGSLRLSCAASVITYFVYAMGWYRQAPGKERELVAAITSGDSTSYADSVKGRFTISRDNAKNTVYLQMNSLKPEDTAVYYCAAEQVTIEDGVYFDFNSWGQGTQVTVSS,low polyreactivity
12,QVQLVESGGGLVQAGGSLRLSCAASVKIFAWYALGWYRKAPGKEMELVADISSRGGSTYYADSVKGRFTISRDNAKNTVYLQMNSLKPEDTAVYYCAAVWYWTQDYDYWGQGTQVTGSS,low polyreactivity
13,QVQLVESGGGLVQAGGSLRLSCAASVLTFVDYAMGWYRQAPGKERELVAAITSSGGSITYYADSVKGRFTISRDNAKNTVYLQMNSLKPEDTAVYYCNADYGIYTDSFRGQDYESWGQGTQVTVSS,low polyreactivity
14,QVQLVESGGGLVQAGGSLRLSCAASVNIFQSYTMGWYRQAPGKERELVARITARGGRTYYADSVQGRFTISRDNANNTVYLQMNSLKPEDTAFYYCAAQHRGPYGVDYWGQGTQVTVSS,high polyreactivity
15,QVQLVESGGGLVQAGGSLRLSCAASVNIFSFYAMGWNRQAPGKERELVAAIIWSGGDTYYADSVKGRFTISLDNAKNTVYLQMNSLKPEDTAVYYCAAEYYYQYYPGGYDYWGQGSQVTVSS,high polyreactivity
16,QVQLVESGGGLVQAGGSLRLSCAASVRIFGYYAMGWNRQAPGTERELVATINSVGSTNYADSVKGRFTISRDNAKNTVYLQMNSLKPEDTAVYYCATDSAYTFFTYRLWRHGYWGQGTQVTVSS,low polyreactivity
17,QVQLVESGGGLVQAGGSLRLSCAASVRIFPIYAMGWYRQAPGKERELVAAIDSGGSTTYADSVKGRFTISRDNAKNTVYLQMNSLKPEDTAVYYCSAKGAYPYWYPVAYRYDYWGQGTQVTVSS,low polyreactivity
